Measurements taken from patent US20210322547A1.

Tests used:
[1] = molecular target: Recombinant human GM-CSF (expression source not stated) (human) (UniProt P04141); assay: competition ELISA; plate coated with 50 ng/well recombinant GM-CSF; unlabeled antibody titrated together with 50 nM biotinylated Ab2; competition for 18 hrs; neutravidin-HRP detection, A450
[2] = molecular target: Recombinant human GM-CSF (expression source not stated) (human) (UniProt P04141); assay: competition ELISA; plate coated with 50 ng/well recombinant GM-CSF; unlabeled antibody titrated together with 50 nM biotinylated Ab2; competition for 1 hr; neutravidin-HRP detection, A450

Chain of UniProt P04141 (P04141 18-144 limits assumed): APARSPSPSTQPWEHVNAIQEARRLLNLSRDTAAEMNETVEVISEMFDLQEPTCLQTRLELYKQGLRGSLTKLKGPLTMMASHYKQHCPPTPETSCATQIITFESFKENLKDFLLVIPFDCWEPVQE

**Q.** With “Ab2, chimeric IgG1k antibody having variable regions from the mouse antibody LMM102” as the substance, how does the IC50 [1] read?
**A.** 0.094 µM

**Q.** What about the IC50 [2] of the same substance?
**A.** 0.122 µM
